The source of these data is patent publication US20240417484A1, “ANTIGEN-BINDING POLYPEPTIDES AGAINST CD73” (UNIVERSITÄTSKLINIKUM HAMBURG-EPPENDORF, priority 2021, published 2024).

One assay has as its target T1, human CD73 (Homo sapiens, UniProt P21589).
T1 construct: expressed in transfected cells; stably transfected in method 5.1)
T1 sequence (P21589 27-549): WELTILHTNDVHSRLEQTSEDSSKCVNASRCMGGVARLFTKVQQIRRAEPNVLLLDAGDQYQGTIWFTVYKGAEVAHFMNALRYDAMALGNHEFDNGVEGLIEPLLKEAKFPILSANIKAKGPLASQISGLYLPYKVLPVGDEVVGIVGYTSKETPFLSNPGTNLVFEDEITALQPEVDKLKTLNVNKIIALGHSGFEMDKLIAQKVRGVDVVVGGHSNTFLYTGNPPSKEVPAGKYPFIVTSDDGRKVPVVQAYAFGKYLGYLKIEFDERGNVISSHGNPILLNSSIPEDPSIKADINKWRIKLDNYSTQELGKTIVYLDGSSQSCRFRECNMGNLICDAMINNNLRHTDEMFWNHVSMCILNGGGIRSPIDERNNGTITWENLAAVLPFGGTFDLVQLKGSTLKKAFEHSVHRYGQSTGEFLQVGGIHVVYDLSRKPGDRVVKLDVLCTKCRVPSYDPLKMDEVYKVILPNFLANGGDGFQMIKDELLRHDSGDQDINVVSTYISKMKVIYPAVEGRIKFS
The experiment in a line: Flow cytometry binding of rabbit IgG hcAbs to human CD73-transfected HEK cells. The following applies: family representative clone; h = binds human CD73, m = binds mouse CD73. On the set-up: key: binding to human (h) and mouse (m) CD73; binding to human (h) and mouse (m) CD73. The procedure: HEK cells were co-transfected with expression vectors for green fluorescent protein (GFP) and human CD73, mouse CD73, and a control cell surface protein (CD39). 48 h after transfection, cells were incubated with HEK cell supernatants containing the indicated rabbit IgG hcAbs. Bound antibodies were detected with PE-conjugated anti rabbit IgG secondary antibody.
• 5.1 Untransfected HEK293 cells and HEK293 cells stably transfected with human or mouse CD73 were incubated for 30 min with HEK-6E cell supernatants containing rabbit IgG hcAbs (diluted 1:10 in PBS/0.1% BSA). Following washing with PBS/0.1% BSA, bound antibodies were detected with PE-conjugated goat anti-rabbit IgG polyclonal antibody (711-116-152 Dianova, Hamburg). • 5.2 For dissociation analyses, two separate aliquots of CD73-transfected cells were incubated either with Cell Proliferation Dye eFluor 450 (eBioscience) or with hcAbs for 20 min at RT. Cells were washed four times, mixed at a 1:1 ratio and further incubated at RT for 120 min before staining of bound antibodies with PE-conjugated goat anti-rabbit IgG polyclonal antibody. The dissociation of hcAbs from the target cells and association with the eFluor 450 labeled cells was analyzed by flow cytometry using the FlowJo software (Treestar). • 5.3 For epitope analyses, cells were preincubated with excess human IgG hcAbs (10 μl HEK-6E cell supernatant/100 μl PBS/0.1% BSA) for 30 min at RT before addition of Nb-rabbit IgG hcAbs (1 μl HEK-6E cell supernatant/100 μl PBS/0.1% BSA) and further incubation for 20 min at RT and staining with PE-conjugated anti-rabbit polyclonal antibody (711-116-152 Dianova, Hamburg). Cells were washed and analyzed by flow cytometry on a BD-FACS Canto. Data were analyzed using the FlowJo software (Treestar).
The binding specificities of the purified hcAbs were determined by flow cytometry using HEK cells transiently co-transfected with expression vectors for GFP and either mouse CD73, human CD73 or a control protein (CD39). 1×10^6 cells were incubated with 10 μl of the Nb-rbIgG hcAb containing HEK-6E cell supernatants for 30 min at 4° C. After washing, the cells were incubated with PE-conjugated anti-rabbit IgG polyclonal antibody (711-116-152 Dianova, Hamburg) and washed twice. The cells were resuspended in PBS and analyzed by flow cytometry on FACS Canto or FACS Celesta (BD Biosciences, Heidelberg). Data evaluation was conducted using the software FlowJo (Treestar, Stanford, US).
For orientation: Flow cytometry measures light scatter and fluorescence of single cells or particles in a stream.

The target of assay [1] is T2, native CD73 on the cell surface of peripheral blood leukocytes (PBMCs) (Homo sapiens, UniProt P21589).
T2 construct: endogenous in cells; host or cells: human PBMCs (B and T lymphocytes)
T2 sequence (P21589 27-549): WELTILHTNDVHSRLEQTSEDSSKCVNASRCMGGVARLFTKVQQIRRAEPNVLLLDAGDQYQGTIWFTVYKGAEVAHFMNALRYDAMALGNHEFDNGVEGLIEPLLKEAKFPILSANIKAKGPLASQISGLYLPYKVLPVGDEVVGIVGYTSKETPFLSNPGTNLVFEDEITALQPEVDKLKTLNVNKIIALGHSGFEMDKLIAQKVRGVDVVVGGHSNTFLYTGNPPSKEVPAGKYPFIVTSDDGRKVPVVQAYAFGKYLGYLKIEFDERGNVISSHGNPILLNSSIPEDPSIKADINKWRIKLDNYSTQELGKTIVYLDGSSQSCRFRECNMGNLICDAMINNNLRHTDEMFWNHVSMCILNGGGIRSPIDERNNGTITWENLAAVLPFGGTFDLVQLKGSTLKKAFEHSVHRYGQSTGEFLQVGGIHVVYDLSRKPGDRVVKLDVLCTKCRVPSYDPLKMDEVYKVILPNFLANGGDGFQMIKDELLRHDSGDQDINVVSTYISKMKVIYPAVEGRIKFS
In words: Flow cytometry binding of hcAbs to native CD73 on blood leukocytes. The following applies: lymphocyte gate, co-stained for CD3 and CD19.
Procedure: Purified hcAbs were analysed for binding to native CD73 on the cell surface of peripheral blood leukocytes (PBMCs) by flow cytometry. To this end purified human PBMCs were incubated for 30 min at RT with 10 μl of rabbit hcAb-containing HEK-6E cell supernatants and bound antibodies were detected with a FITC conjugated anti rabbit IgG secondary antibody. To distinguish between B lymphocytes most of which express high levels of cell surface CD73, and T lymphocytes a subset of which express moderate levels of cell surface CD73, cells were co-stained with PE-conjugated mouse anti-human CD3 mAb (UCHT1) and a PerCP/Cy5.5-conjugated mouse anti-human CD19 mAb (HIB19). After washing the cells, cells were analyzed by flow cytometry. A hcAb binding only to murine CD39 (SB30) was used as a negative control. […] Gating was performed on lymphocytes on the basis of forward and side scattered light.

In assay [2] the target is T3, soluble human CD73 (Homo sapiens, UniProt P21589).
T3 construct: The ectodomain of CD73 (aa 27-549) was expressed as a recombinant protein with a C-terminal His6× tag; His6 (C); made in house; host or cells: transiently transfected HEK cells
T3 sequence (P21589 27-549): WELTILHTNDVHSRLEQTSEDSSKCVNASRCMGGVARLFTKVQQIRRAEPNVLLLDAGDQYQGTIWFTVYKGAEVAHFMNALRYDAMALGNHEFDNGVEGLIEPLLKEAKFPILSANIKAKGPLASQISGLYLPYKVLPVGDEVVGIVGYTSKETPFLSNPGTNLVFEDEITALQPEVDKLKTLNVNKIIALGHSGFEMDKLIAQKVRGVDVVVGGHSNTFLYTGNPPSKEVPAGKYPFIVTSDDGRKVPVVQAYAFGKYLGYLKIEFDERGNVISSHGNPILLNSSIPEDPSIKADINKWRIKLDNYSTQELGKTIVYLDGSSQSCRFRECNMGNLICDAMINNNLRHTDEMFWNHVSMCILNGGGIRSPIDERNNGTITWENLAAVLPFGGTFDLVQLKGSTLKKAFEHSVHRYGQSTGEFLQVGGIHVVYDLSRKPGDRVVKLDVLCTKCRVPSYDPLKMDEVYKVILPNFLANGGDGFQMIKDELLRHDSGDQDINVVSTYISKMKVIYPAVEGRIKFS
In words: Off-rates of soluble CD73 from immobilized Nb-rbIgG hcAb on Octet BLI. The following applies: soluble human CD73 ectodomain 200 ng/μl as analyte; Nb-rbIgG hcAb immobilized on protein A biosensor. The class given is binding. In general terms: BLI is a label-free optical method that tracks binding on a fibre tip over time.

The target in assay [3] is T4, CD73-expressing human AML-OCI3 cells (Homo sapiens, UniProt P21589).
T4 construct: CD73-expressing human AML-OCI3 cells (AML cell line); endogenous in cells; host or cells: OCI-AML3 human AML cell line
T4 sequence (P21589 27-549): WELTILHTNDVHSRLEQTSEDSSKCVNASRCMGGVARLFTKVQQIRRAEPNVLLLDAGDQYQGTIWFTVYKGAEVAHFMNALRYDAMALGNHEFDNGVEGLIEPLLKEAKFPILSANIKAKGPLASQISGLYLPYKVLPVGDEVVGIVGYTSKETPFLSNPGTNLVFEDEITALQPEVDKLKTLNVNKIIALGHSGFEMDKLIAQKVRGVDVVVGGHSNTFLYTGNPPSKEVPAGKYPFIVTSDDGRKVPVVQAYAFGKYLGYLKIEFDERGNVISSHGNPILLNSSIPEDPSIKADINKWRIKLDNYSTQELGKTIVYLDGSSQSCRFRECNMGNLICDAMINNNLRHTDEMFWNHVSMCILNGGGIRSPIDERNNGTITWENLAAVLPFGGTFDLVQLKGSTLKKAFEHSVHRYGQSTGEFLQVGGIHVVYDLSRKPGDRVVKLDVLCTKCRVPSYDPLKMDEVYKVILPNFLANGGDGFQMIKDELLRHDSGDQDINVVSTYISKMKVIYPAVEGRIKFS
The experiment in a line: AMP degradation by cell bound CD73, luminometric AMPglow assay. The class given is cell-based. The following applies: CD73 expressed on the cell surface of OCI-AML3 cells; compared with dimeric SB116 or SB188 Fc constructs. On the procedure:
AMP was added and AMP degradation was measured using the luminometric AMPglow assay. Data analyses were performed using Prism (Graphpad).
(§1) Soluble recombinant human CD73 or CD73-expressing human […] cells were incubated with CD73-specific dimeric clones SB116-rbFc, SB188-rbFc, biparatopic SB116-188-Alb trimers or with non-binding L-10e-rbFc clone (control). AMP was added and AMP degradation was measured using the luminometric AMPglow assay. Data analyses were performed using Prism (Graphpad).

Assay [4] deals with T3, soluble human CD73. The experiment in a line: AMP degradation by soluble CD73, luminometric AMPglow assay. The class given is biochemical. The following applies: CD73 present as soluble enzyme; compared with dimeric SB116 or SB188 Fc constructs. The procedure:
as §1

B1: SB142: CD73-specific alpaca VHH clone, family 2 in Tables 1-2, SEQ ID NO:73; tested as rabbit IgG hcAb (antibody)
heavy: QVQLVESGGGLVQPGGSLRLSCAASGFTFINYHMSWLRQAPGKGLEWVSEIHSRGDITSYTNSVKGRFTISRDNAKNTLYLQMNSLKFDDTAVYYCARSRDLFGEGEYDYWGRGTQVTVSS
modifications: left off: a dimerising Fc or GST
notes: tested as rabbit IgG hcAb
B1: the specificity entry with human CD73 was “h”. Moreover, in assay [1], the “staining of native CD73 on human PBMCs” value was “on most B cells and on a subset of T cells”. Moreover, in the assay with soluble human CD73 [2], the Kdis is 0.00036 s⁻¹.

B2: SB116-188-Alb: biparatopic SB116-188-Alb trimers, anti-CD73 nanobody heterotrimer (protein)
chain (part 1 of 2): QVKLQESGGGRVQTGGSLRLSCAASGISFSITTMYWYRQAPGEQRQLVALITDRGNTYYVDSVKGRFTISRDDSKNTVYLQMNDLKPEDTAVYFCNSIPGNDWGQGTQVTVSS
chain (part 2 of 2): QVQLVESGGGLVQAGGSLRLSCAASGFTFINYHMSWLRQAPGKEREFVAEIHSRGDITSYTNSVKGRFTISRDNAKNTVYLQMNSLKPEDTAVYYCARSRDLFNEGEYDYWGRGTQVTVSS
modifications: left off: small tags and cut ends; another chain or arm of the molecule
notes: biparatopic SB116-188-Alb trimers, anti-CD73 nanobody heterotrimer
As for B2, the “blockade of CD73-mediated AMP degradation” value in assay [3] was “less potent compared to dimeric SB116 or SB188 Fc constructs”; with soluble human CD73 [4], “enhanced blockade of CD73-mediated AMP degradation when compared to dimeric SB116 or SB188 Fc constructs”.
